Measurements as given in publication PMC8944281 (Proceedings of the National Academy of Sciences of the …, 2022).

Biological target: T1, His8-tagged GSAP-16K 734 to 758 (UniProt A4D1B5 734-758)
T1 chain (looked up): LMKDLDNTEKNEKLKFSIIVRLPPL
Test: SEC

SIHHGVVEV (domain or fragment, UniProt P05067 730-738, looked up) [GST-APP 730 to 738]
binding result: binds
